Assays:
[1] = biological target: T1, human CD40 (hCD40) expressed on cells (human, UniProt P25942 21-277); assay: flow cytometry, Ramos 2G6.4C10 cells
T1 construct: whole, on cells; one entry for transfected and endogenous human CD40; the cell line is named under assay or readout; also called HEK293/D9/hCD40; Ramos 2G6.4C10
Description: (§1) Cells were washed with 2% FBS (w/v) in 1×PBS (flow cytometry staining buffer) by centrifugation with benchtop Centrifuge 5810R (Eppendorf®, Hamburg, Germany). Cells were incubated for 30 minutes at 4° C. with serial dilutions of following antibodies ranging from 1.7 pM to 100 nM in flow cytometry staining buffer (1) anti-CD40×CD40 bispecific antibodies, or (2) parental anti-CD40 antibodies (bivalent antibodies comprising 2 fragment antigen-binding [Fab] arms identical to one of the two anti-CD40 Fab of bispecific anti-CD40×CD40 antibodies), or (3) anti-CD40×Irrelevant antibodies (bivalent antibodies that incorporate one Fab arm identical to one of anti-CD40 Fab of anti-CD40×CD40 antibodies and another Fab arm specific to an irrelevant antigen, i.e. birch pollen main allergen Bet v1), or (4) human IgG4 isotype control antibodies with Fc mutation. After washing, cell bound antibodies were detected with 2.5 μg/ml Allophycocyanin (APC)-conjugated goat anti-human IgG antibody specific for the Fcγ fragment (Jackson Immunoresearch, West Grove, PA) for 30 minutes at 4° C. Cells were washed and subsequently fixed with 50% solution of Cytofix™ Fixation Buffer (BD, Franklin Lakes, NJ) in flow cytometry staining buffer for 20 minutes at room temperature. Cells were washed and resuspended in flow cytometry staining buffer and stored at 4° C. for downstream flow cytometry analysis.
(§2) Acquisition of fluorescence signals were recorded on the ZE5 Cell Analyzer (Bio-Rad, Hercules, CA) according to the manufacturer's recommended procedure and flow cytometry data analysis was performed using the open-source R packages flowCore, flowStats, flowDensity, ggCyto, and flowAI. Multiplexed samples were deconvoluted and individual cell populations were identified based on their unique CellTrace™ fluorescence signature. APC Median Fluorescence intensity (MFI) was recorded to indicate the binding intensity of each antibody over a range of concentrations. Antibodies with MFI greater than 1500 at the highest tested concentration (100 nM) were classified as specific binders. In addition, direct binding signals (APC MFI) were analyzed as a function of the antibody concentration and data were fitted with a sigmoidal (four-parameter logistic) dose-response model using GraphPad Prism™ software.

[2] = biological target: T1, human CD40 (hCD40) expressed on cells; assay: cell-based or functional assay
[3] = biological target: T2, Macaca fascicularis CD40 (mfCD40) expressed on HEK293/D9/mfCD40 cells (Macaca fascicularis, UniProt G7PG38 21-278); assay: flow cytometry, HEK293/D9/mfCD40 cells
T2 construct: whole, on cells; also called monkey CD40
Description: as §1, §2

[4] = biological target: T3, human CD40 extracellular domain expressed with a C-terminal myc-myc-hexahistidine tag (human); assay: ELISA blocking of 40 nM hCD40-mmH binding to 9His-hCD40L
T3 construct: also called hCD40-MMH; hCD40-mmH
T3 sequence (chain, as listed by the source limits assumed): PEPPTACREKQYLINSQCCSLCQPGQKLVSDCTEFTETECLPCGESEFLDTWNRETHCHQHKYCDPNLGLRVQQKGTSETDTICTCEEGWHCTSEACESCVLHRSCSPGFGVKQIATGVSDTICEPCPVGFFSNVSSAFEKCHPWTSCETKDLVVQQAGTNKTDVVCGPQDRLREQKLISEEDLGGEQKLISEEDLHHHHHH
Description: An ELISA-based blocking assay was developed to determine the ability of C40×CD40 bispecific antibodies to block the binding of the hCD40 monomer to plate-coated hCD40L. The recombinant human CD40-mmH protein (hCD40-MMH; REGN3094; SEQ ID NO: 53) used in the experiments comprises a portion of the human CD40 extracellular domain (amino acids P20-R193) fused to 2×Myc peptide and 6×histadine (SEQ ID NO: 1110) at the C-terminus of human CD40, and the human CD40L (accession #NM_000074.2) with amino acids E108-L261 of the extracellular domain with 9×His-2×(SGGG)-IGER at the N-terminus (9His-hCD40L) was commercially obtained from Biolegend.
In the blocking assay, 9His-hCD40L was passively absorbed at a concentration of 5 μg/mL in PBS on a 96-well microtiter plate overnight at 4° C. […] In a separate 96-well microtiter plate, a fixed amount of 40 nM hCD40-mmH was pre-mixed with one of the following antibodies, at concentrations ranging from 977 pM to 1 μM in PBS+0.5% BSA: (1) CD40×CD40 bispecific antibodies (REGN16431, REGN16432, REGN16634, and REGN16335); (2) parental CD40 mAbs (bivalent antibodies comprising 2 fragment antigen-binding [Fab] arms identical to one of anti-CD40 Fab of CD40×CD40 antibodies); (3) CD40×Irrelevant antibodies (bivalent antibodies that incorporate one Fab arm identical to one of anti-CD40 Fab of CD40×CD40 antibodies and another Fab arm specific to an irrelevant antigen); and (4) human IgG4 with Fc mutation isotype control antibodies (REGN7540 and REGN4513). The fixed concentration of hCD40-mmH was selected to be near the concentration (EC₅₀ value) that generated 50% of the maximal binding to the plate-adhered 9His-hCD40L. After one-hour incubation, the antibody-antigen complexes were transferred to the microtiter plate coated with 9His-hCD40L. After one hour incubation at room temperature, the plates were washed, and plate-bound hCD40-mmH protein was detected with horseradish peroxidase (HRP) conjugated goat anti-c-Myc antibody. The plates were then developed using TMB substrate solution (BD Biosciences) according to the manufacturer's recommended procedure and the absorbance at 450 nm (OD₄₅₀) was measured on a SpectraMax i3×plate reader.

[5] = biological target: T1, human CD40 (hCD40) expressed on cells; assay: flow cytometry, HEK293/D9/hCD40 cells
Description: as §1, §2

[6] = biological target: T1, human CD40 (hCD40) expressed on cells; assay: cell-based or functional assay; remark: listed apart in the source
[7] = biological target: T1, human CD40 (hCD40) expressed on cells; assay: cell-based or functional assay; remark: listed apart in the source
[8] = biological target: T1, human CD40 (hCD40) expressed on cells; assay: cell-based or functional assay; remark: listed apart in the source
[9] = biological target: T1, human CD40 (hCD40) expressed on cells; assay: cell-based or functional assay; remark: listed apart in the source
[10] = biological target: T1, human CD40 (hCD40) expressed on cells; assay: cell-based or functional assay; remark: listed apart in the source
[11] = biological target: T1, human CD40 (hCD40) expressed on cells; assay: cell-based or functional assay; remark: listed apart in the source
[12] = biological target: T1, human CD40 (hCD40) expressed on cells; assay: cell-based or functional assay; remark: listed apart in the source
[13] = biological target: T1, human CD40 (hCD40) expressed on cells; assay: cell-based or functional assay; remark: listed apart in the source

T1 sequence (P25942 21-277): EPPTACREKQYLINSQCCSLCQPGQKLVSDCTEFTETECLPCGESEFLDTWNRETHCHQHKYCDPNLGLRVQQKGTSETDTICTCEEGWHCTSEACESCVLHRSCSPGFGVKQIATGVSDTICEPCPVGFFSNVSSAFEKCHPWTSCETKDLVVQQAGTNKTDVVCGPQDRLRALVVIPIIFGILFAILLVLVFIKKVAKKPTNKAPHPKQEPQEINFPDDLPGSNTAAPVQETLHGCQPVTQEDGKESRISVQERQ

| Binder | EC50 [1] [nM] | MFI at 100 nM [1] [MFI] | IC50, 500 pM hCD40L, Ramos NFkB-luc [2] [M] | Max % activation, no ligand, Ramos NFkB-luc [2] [%] | Max % inhibition, 500 pM hCD40L, Ramos NFkB-luc [2] [%] | EC50 [3] [nM] | MFI at 100 nM [3] [MFI] | % Blocking at 1 uM mAb [4] [%] | IC50 [4] [nM] | EC50 [5] [nM] | MFI at 100 nM [5] [MFI] | IC50, 10 nM hCD40L, THP-1 NFkB-luc [6] [pM] | Max % activation, no ligand, THP-1 NFkB-luc [6] [%] | Max % inhibition, 10 nM hCD40L, THP-1 NFkB-luc [6] [%] | IC50, 900 pM hCD40L, Raji NFkB-luc [7] [M] | Max % activation, no ligand, Raji NFkB-luc [7] [%] | Max % inhibition, 900 pM hCD40L, Raji NFkB-luc [7] [%] | % max blockade relative to no mAb, IL-6, assay #2 donor 1 [8] [%] | % max blockade relative to no mAb, IL-6, assay #2 donor 2 [8] [%] | % max blockade relative to no mAb, TNFa, assay #2 donor 1 [10] [%] | also measured |
| --- | --- | --- | --- | --- | --- | --- | --- | --- | --- | --- | --- | --- | --- | --- | --- | --- | --- | --- | --- | --- | --- |
| REGN17544 (antibody, V domains shown, bivalent mAb with two Fab arms identical to the 21520 arm; also called Parental CD40 (21520)) VH: EVQLVESGGGLVQPGGSLRLSCAASGFTFGSYGMAWVRQAPGKGLEWVSAISGSGDYTNYADSVKRRFTISRDNSKNTLYLQMSSLRAEDTAVYYCAKEKTGTTGYLYSGMDVWGQGTTVTVSS VL: not shown | 0.87 | 2440 | 1.89e-10 | 10 | 77 | 4.3 | 23200 | 91 | 71 | 0.98 | 20500 | 1130 | 4 | 96 | 1.35e-10 | 11 | 81 |  |  |  |  |
| REGN17289 (antibody, V domains shown, bivalent mAb with two Fab arms identical to the 30027 arm; also called Parental CD40 (30027)) VH: EVQLVESGGGLVQPGGSLRLSCAASGFTFSSYAMNWVRQAPGKGLEWVSIISGTIGKTYYADSVKGRFTISRDNSKNTLYLQMNSLRGEDTAVYYCAKDTERDITGSPFDYWGQGTLVTVSS VL: not shown | 0.47 | 2660 |  | 4 | -133 | 1.1 | 32900 | 10 |  | 0.76 | 20500 |  | 1 | -92 | 2.72e-11 | 10 | 55 |  |  |  | EC50 (potentiation), 500 pM hCD40L, Ramos NFkB-luc [2]: 7.51e-12 M; EC50 (potentiation), 10 nM hCD40L, THP-1 NFkB-luc [6]: 16 pM |
| REGN17288 (antibody, V domains shown, also called Parental CD40 (21519)) VH: QLQLQESGPGLVRPSETLSLTCSVSGASMNTNNYYWGWIRQPPGKGLEWIGSGYYNGNTYYNPSLKSRVTISVDTSKNQFSLKLNSVTAADTAVYYCARQTPPRIIGSPNIWGQGTMVTVSS VL: not shown | 1.3 | 2420 | 4.07e-11 | 6 | 88 | 9.2 | 11800 | 94 | 52 | 1.2 | 20300 | 334 | 0 | 98 | 4.28e-11 | 14 | 90 |  |  |  |  |
| REGN11209 (comparator anti-CD40 antibody) (antibody, human IgG1, kappa, N297A, V domains shown) VH: QVQLVESGGGVVQPGRSLRLSCAASGFTFSSYGMHWVRQAPGKGLEWVAVISYEESNRYHADSVKGRFTISRDNSKITLYLQMNSLRTEDTAVYYCARDGGIAAPGPDYWGQGTLVTVSS VL: DIVMTQSPLSLTVTPGEPASISCRSSQSLLYSNGYNYLDWYLQKPGQSPQVLISLGSNRASGVPDRFSGSGSGTDFTLKISRVEAEDVGVYYCMQARQTPFTFGPGTKVDIRR |  |  |  |  |  |  |  |  |  |  |  |  |  |  |  |  |  | 88.6 | 88.3 | 62 | % max blockade relative to no mAb, TNFa, donor 1 [9]: 53.9%; % max blockade relative to no mAb, TNFa, donor 2 [9]: 71.4%; % max blockade relative to no mAb, TNFa, donor 3 [9]: 73.9%; % max blockade relative to no mAb, TNFa, assay #2 donor 2 [10]: 50.6%; % max blockade relative to no mAb, IL-10, assay #2 donor 1 [11]: 88.1%; % max blockade relative to no mAb, IL-10, assay #2 donor 2 [11]: 90.5%; % max blockade relative to no mAb, IL-10, donor 1 [12]: 84.1%; % max blockade relative to no mAb, IL-10, donor 2 [12]: 91.7%; % max blockade relative to no mAb, IL-10, donor 3 [12]: 91.4%; % max blockade relative to no mAb, IL-6, donor 1 [13]: 84.2%; % max blockade relative to no mAb, IL-6, donor 2 [13]: 91.3%; % max blockade relative to no mAb, IL-6, donor 3 [13]: 91.3% |
| REGN20484 (bispecific antibody, human IgG4 S228P, kappa) heavy 1: EVQLVESGGGLVQPGGSLRLSCAASGFTFGSYGMAWVRQAPGKGLEWVSAISGSGDYTNYADSVKRRFTISRDNSKNTLYLQMSSLRAEDTAVYYCAKEKTGTTGYLYSGMDVWGQGTTVTVSSASTKGPSVFPLAPCSRSTSESTAALGCLVKDYFPEPVTVSWNSGALTSGVHTFPAVLQSSGLYSLSSVVTVPSSSLGTKTYTCNVDHKPSNTKVDKRVESKYGPPCPPCPAPGGGGPSVFLFPPKPKDTLMISRTPEVTCVVVDVSQEDPEVQFNWYVDGVEVHNAKTKPREEQFNSTYRVVSVLTVLHQDWLNGKEYKCKVSNKGLPSSIEKTISKAKGQPREPQVYTLPPSQEEMTKNQVSLTCLVKGFYPSDIAVEWESNGQPENNYKTTPPVLDSDGSFFLYSRLTVDKSRWQEGNVFSCSVMHEALHNHYTQKSLSLSLGK heavy 2: EVQLVESGGGLVQPGGSLRLSCAASGFTFSSYAMNWVRQAPGKGLEWVSIISGTIGKTYYADSVKGRFTISRDNSKNTLYLQMNSLRGEDTAVYYCAKDTERDITGSPFDYWGQGTLVTVSSASTKGPSVFPLAPCSRSTSESTAALGCLVKDYFPEPVTVSWNSGALTSGVHTFPAVLQSSGLYSLSSVVTVPSSSLGTKTYTCNVDHKPSNTKVDKRVESKYGPPCPPCPAPGGGGPSVFLFPPKPKDTLMISRTPEVTCVVVDVSQEDPEVQFNWYVDGVEVHNAKTKPREEQFNSTYRVVSVLTVLHQDWLNGKEYKCKVSNKGLPSSIEKTISKAKGQPREPQVYTLPPSQEEMTKNQVSLTCLVKGFYPSDIAVEWESNGQPENNYKTTPPVLDSDGSFFLYSRLTVDKSRWQEGNVFSCSVMHEALHNRFTQKSLSLSPGK light: not shown |  |  |  |  |  |  |  |  |  |  |  |  |  |  |  |  |  | 89 | 88.1 | 61.9 | % max blockade relative to no mAb, TNFa, assay #2 donor 2 [10]: 52.3%; % max blockade relative to no mAb, IL-10, assay #2 donor 1 [11]: 87.1%; % max blockade relative to no mAb, IL-10, assay #2 donor 2 [11]: 90.9% |

Reference: patent US20250277048A1 (Regeneron, published 2025)
